In PMC11782696, “Claudin-11 regulates immunological barrier formation and spermatogonial proliferation through stem cell factor” (Communications Biology, 2025):

Biological target: T1, MBP fusion protein of the PDZ1 domain (aa 19-113) of mouse ZO1 (mouse, UniProt P39447 19-113)
T1 construct: zonula occludens 1 (ZO1), mouse, PDZ1 domain, aa 19-113 of the 1,745-amino-acid protein; Expression vector provided by Masahiko Itoh; also called MBP-zPDZ1; PDZ1 of ZO1; source: E. coli DH5α, purified (amylose resin, eluted with 10 mM maltose)
T1 sequence (looked up): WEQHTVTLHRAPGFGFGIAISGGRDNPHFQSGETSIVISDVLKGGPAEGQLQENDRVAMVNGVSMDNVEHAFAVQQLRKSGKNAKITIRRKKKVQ
Assay: pull-down; GST-fused proteins on Glutathione Sepharose 4B beads incubated with eluted MBP-fused proteins at 4 °C overnight in buffer A (50 mM Tris-HCl pH 8.0, 50 mM NaCl, 1 mM EDTA, 1 mM DTT); washed three times; SDS-PAGE and Coomassie Brilliant Blue staining
Details: both partners purified

B1: GST fusion protein of the C-terminal 29 amino acids of mouse CLDN11 (aa 179-207) (domain or fragment, UniProt Q60771 179-207, looked up)
chain: SGDAQSFGENRFYYSSGSSSPTHAKSAHV
notes: claudin-11 (CLDN11), mouse, C-terminal 29 amino acids, aa 179-207 of the 207-residue protein; also called GST-CL11; claudin-11 C-terminus
  binding result: binds
